Measured values reported in US20240317847A1 (Bayer, published 2024).
Changes are numbered by the printed parent chain.

T1: human IL2Ra (Peprotech, Germany, #200-02RC) (human, UniProt P01589 22-240)
T1 construct: Coated on the ELISA plate; also called hIL2Ra; IL-2 receptor alpha
T1 sequence (looked up): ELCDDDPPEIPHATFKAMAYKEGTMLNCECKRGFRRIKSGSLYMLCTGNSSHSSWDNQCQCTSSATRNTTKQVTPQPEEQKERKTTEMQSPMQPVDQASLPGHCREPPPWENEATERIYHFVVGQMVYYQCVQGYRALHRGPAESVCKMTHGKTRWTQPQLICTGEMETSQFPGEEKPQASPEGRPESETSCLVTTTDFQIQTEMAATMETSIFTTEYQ

T2: human IL-11 (human, UniProt P20809 22-199)
T2 construct: Invigate recombinant protein; biotinylated when immobilized in the Di-complex ELISA; also called hIL11; hIL-11
T2 sequence: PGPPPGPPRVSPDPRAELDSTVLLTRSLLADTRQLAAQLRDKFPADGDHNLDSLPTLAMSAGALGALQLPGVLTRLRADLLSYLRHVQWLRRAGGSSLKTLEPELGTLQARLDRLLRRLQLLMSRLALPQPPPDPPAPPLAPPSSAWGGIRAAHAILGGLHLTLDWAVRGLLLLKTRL

T3: murine IL-11 (mouse, UniProt P47873 22-199)
T3 construct: Invigate recombinant protein; biotinylated when immobilized in the Di-complex ELISA; also called mIL11; mIL-11
T3 sequence: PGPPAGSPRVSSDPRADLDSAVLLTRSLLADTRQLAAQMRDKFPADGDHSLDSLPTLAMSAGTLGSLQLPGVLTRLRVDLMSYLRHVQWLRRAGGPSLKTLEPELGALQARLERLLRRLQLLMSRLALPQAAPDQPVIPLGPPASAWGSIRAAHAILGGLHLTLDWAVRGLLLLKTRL

T4: human IL2Ra (human, UniProt P01589 22-240, limits assumed)
T4 construct: coated on the ELISA plate; also called IL-2 receptor alpha
T4 sequence (looked up): T1 sequence (looked up)

B1: TPP-29697 (bispecific antibody, IgG1)
chain 1: QVQLVESGGGVVQPGRSLRLSCAASGFTFSHYDMHWVRQAPGKGLEWVAVISYHGSVKFYADSVKGRFTISRDNSKNTLYLQMNSLRAEDTAVYYCARTPGFHFDYWGQGTLVTVSSGGGGSGGGGSGGGGSQSVLTQPPSASGTPGQRVTISCSGSSSNIGSNYVSWYQQLPGTAPKLLIYYDDLRPSGVPDRFSGSKSGTSASLAISGLRSEDEADYYCSAWDDSLSGVVFGGGTKLTVLGGGGSGGGGSGGGGSGVECPPCPAPPVAGPSVFLFPPKPKDTLMISRTPEVTCVVVGVSHEDPEVKFNWYVDGVEVHNAKTKPREEQYNSTYRVVSVLTVLHQDWLNGKEYKCKVSNKQLPSPIEKTISKAKGQPREPQVYTLPPCRDELTKNQVSLWCLVKGFYPSDIAVEWESNGQPENNYKTTPPVLDSDGSFFLYSKLTVDKSRWQQGNVFSCSVMHEALHNHYTQKSLSLSPGK
chain 2: EVQLLESGGGLVQPGGSLRLSCAASGFTFSSYGMHWVRQAPGKGLEWVAVISYDGSYKYYADSVKGRFTISRDNSKNTLYLQMNSLRAEDTAVYYCAAGVPDYWGQGTLVTVSSGGGGSGGGGSGGGGSQSVLTQPPSASGTPGQRVTISCSGSSSNIGSDYDVHWYQQLPGTAPKLLIYSNEERPSGVPDRFSGSKSGTSASLAISGLRSEDEADYYCSAWDSSLSGPVFGGGTKLTVLGGGGSGGGGSGGGGSGVECPPCPAPPVAGPSVFLFPPKPKDTLMISRTPEVTCVVVGVSHEDPEVKFNWYVDGVEVHNAKTKPREEQYNSTYRVVSVLTVLHQDWLNGKEYKCKVSNKQLPSPIEKTISKAKGQPREPQVCTLPPSRDELTKNQVSLSCAVKGFYPSDIAVEWESNGQPENNYKTTPPVLDSDGSFFLVSKLTVDKSRWQQGNVFSCSVMHEALHNHYTQKSLSLSPGK
notes: scFv-kih-hIgG1 with Fc-silencing mutations; arms from TPP-29519 and TPP-29528
B2: TPP-29523 (antibody, mouse IgG1)
heavy: QVQLVESGGGVVQPGRSLRLSCAASGFTFSHYDMHWVRQAPGKGLEWVAVISYEGSVKFYADSVKGRFTISRDNSKNTLYLQMNSLRAEDTAVYYCARTPGFHFDYWGQGTLVTVSSAKTTPPSVYPLAPGSAAQTNSMVTLGCLVKGYFPEPVTVTWNSGSLSSGVHTFPAVLQSDLYTLSSSVTVPSSTWPSETVTCNVAHPASSTKVDKKIVPRDCGCKPCICTVPEVSSVFIFPPKPKDVLTITLTPKVTCVVVDISKDDPEVQFSWFVDDVEVHTAQTQPREEQFNSTFRSVSELPIMHQDWLNGKEFKCRVNSAAFPAPIEKTISKTKGRPKAPQVYTIPPPKEQMAKDKVSLTCMITDFFPEDITVEWQWNGQPAENYKNTQPIMDTDGSYFVYSKLNVQKSNWEAGNTFTCSVLHEGLHNHHTEKSLSHSPGK
light: QSVLTQPPSASGTPGQRVTISCSGSSSNIGSNYVNWYQQLPGTAPKLLIYYDDLRPSGVPDRFSGSKSGTSASLAISGLRSEDEADYYCSAWDDSLSGVVFGGGTKLTVLGQPKSSPSVTLFPPSSEELETNKATLVCTITDFYPGVVTVDWKVDGTPVTQGMETTQPSKQSNNKYMASSYLTLTARAWERHSSYSCQVTHEGHTVEKSLSRADCS
notes: mIgG1, Lambda
B3: TPP-29520 (antibody, mouse IgG1)
heavy: B2 heavy with E54S, F102S
light: B2 light
notes: mIgG1, Lambda
B4: TPP-29522 (antibody, mouse IgG1)
heavy: B2 heavy with V57N
light: B2 light
notes: mIgG1, Lambda
B5: TPP-29521 (antibody, mouse IgG1)
heavy: B2 heavy with V57N
light: B2 light with N35S
notes: mIgG1, Lambda

The binders below were run against T1, human IL2Ra (Peprotech, Germany, …) (assay: direct binding ELISA on coated IL2Ra).

Binder	binding result
B1	no binding (tested: 1E-07 [M] antibody)

These binders were tested against T2, human IL-11 (assay: Tri-complex ELISA, hIL-11 + mIL-11Ra-Fc + hgp130-Fc, inhibition of complex formation).
Procedure: In the Tri-complex ELISA format IL-11 antibodies are tested for their ability to inhibit the formation of a complex consisting of murine or human gp130-Fc fusion protein, with murine or human IL-11, and a murine IL11RA-Fc fusion protein. The assay format was adapted according to FIG. 18 (a, b), depending on whether murine or human IL-11 IgG antibodies were tested.
(§1) IgG converted antibodies were subjected to the experimental assay procedure described in Example 19 and IC50 [M], respectively efficacy (%) were calculated accordingly.

Binder	Efficacy (%)	IC50
B2	84.3%	2.1 nM
B3	81.8%	1.3 nM
B4	85.4%	2 nM
B5	85.7%	1.8 nM

Each binder was assayed against T3, murine IL-11 (assay: Tri-complex ELISA, mIL-11 + mIL-11Ra-Fc + mgp130-Fc, inhibition of complex formation).
Procedure: In a first step, 25 μl of goat anti human IgG (Sigma, #12136), diluted 1:1000 in coating buffer (Candor, #121125) was coated on the plate at 4° C. overnight. Next day, the plate was washed one time with 50 μl PBST and then blocked with 50 μl SmartBlock (Candor, #113125) for one hour at room temperature (RT). […] After three additional washes of the coated and blocked microtiter plate with PBS-T, 25 μl of each mixture were added and the assay plate was incubated for one hour at room temperature. After three additional washes, anti-mouse-gp130 biotinylated antibody (R&D, #BAF468) or anti-human gp130 biotinylated antibody (R&D, #BAF228), both 1:1000 in 10% SmartBlock PBS-T, was added and incubated for 1 hour at RT. After three additional washes, a Streptavidin-Peroxidase conjugate (Sigma, #S5512) 1:1000 in SmartBlock PBS-T was added and incubated for one hour at room temperature. After a final three washes, AmplexRed (Fisher Scientific, A12222), 1/1000 in PBS, 0,003% H₂O₂, was added as substrate and incubated for 15 min at RT in the dark. Then, the fluorescence was measured with a plate reader at 535/595 nm. Signals from dose responses were used to calculate IC50 values using GraphPad Prism software. Efficacy was calculated as [(signal measured at lowest antibody concentration−signal measured at the highest antibody concentration)×100] divided by (signal measured at lowest antibody concentration−signal measured in the absence of antibody at an IL11 concentration of 8.2E-11 [M]).
as §1

Binder	Efficacy (%)	IC50
B2	84.3%	0.12 nM
B3	81.8%	0.13 nM
B4	85.4%	0.11 nM
B5	85.7%	0.092 nM

Each binder was assayed against T4, human IL2Ra (assay: ELISA on coated IL2Ra, signal ratio to isotype control TPP-10159 at 3.3E-7 M antibody).
Procedure: IL2RA (Peprotech, Germany, #200-02RC) was coated at 1 or 0 μg/ml (buffer only control) in 30 μl coating buffer (Candor, #113500) per well on a 384 well microtiter plate (Maxisorb, Nunc, #460518) over night at 4-8° C. After two washes with 50 μl/well washing buffer (PBS+0.05% Tween, pH 7.4), the plates were incubated for two hours at room temperature with 50 μl/well SmartBlock (Candor, #113500). After blocking, the plates were washed three times with washing buffer. Then, a dilution series of the respective antibody (1E-7 [M] down to 2E-13 [M]) in PBS+0.05% Tween, 10% SmartBlock were added in 30 μl to the microtiter plate and incubated for 90 min at room temperature. After three additional washes, 30 μl anti mouse IgG HRP-conjugated antibody (Biotechne, HAF007), diluted 1:1000 in PBS+0.05% Tween (pH 7.4), were added per well and incubated for one hour. After three additional washes, a mixture of Amplex red (Invitrogen, #12222, 10 mM stock solution in DMSO) 1:1000 diluted in PBS and H2O2 (30%, Merck, #107209)) diluted 1:10000 in PBS were added as substrate with 30 μl per well and incubated for 20 min in the dark. Relative fluorescence was measured with a microtiter plate reader at 535/590 nm.
IgG converted antibodies TPP-were tested for binding to IL2Ra as described in Example 20. The ratios of the signals obtained at an antibody concentration of 3.3E-7 [M] for IgG converted antibody versus the isotype control TPP-10159 were calculated and are shown in Table E22.

Binder	Antibody/Isotype Control Ratio of IL-2Ra Binding Signals
B2	1.2 ratio
B3	0.6 ratio
B4	0.7 ratio
B5	0.7 ratio
